Experimental data taken from US20160032005A1 (INSERM INSTITUT NATIONAL DE LA SANTE ET DE LA RECHERCHE …, published 2016).

B1: Vangl2 in COS-7 cells (receptor)
chain: MDTESQYSGYSYKSGHSRSSRKHRDRRDRHRSKSRDGGRGDKSVTIQAPGEPLLDNESTRGDERDDNWGETTTVVTGTSEHSISHDDLTRIAKDMEDSVPLDCSRHLGVAAGATLALLSFLTPLAFLLLPPLLWREELEPCGTACEGLFISVAFKLLILLLGSWALFFRRPKASLPRVFVLRALLMVLVFLLVVSYWLFYGVRILDARERSYQGVVQFAVSLVDALLFVHYLAVVLLELRQLQPQFTLKVVRSTDGASRFYNVGHLSIQRVAVWILEKYYHDFPVYNPALLNLPKSVLAKKVSGFKVYSLGEENSTNNSTGQSRAVIAAAARRRDNSHNEYYYEEAEHERRVRKRRARLVVAVEEAFTHIKRLQEEEQKNPREVMDPREAAQAIFASMARAMQKYLRTTKQQPYHTMESILQHLEFCITHDMTPKAFLERYLAAGPTIQYHKERWLAKQWTLVSEEPVTNGLKDGIVFLLKRQDFSLVVSTKKVPFFKLSEEFVDPKSHKFVMRLQSETSV
notes: Vangl2 immunoprecipitated with 2G4 mAb from COS-7 cells

Tests used:
Vangl2 in COS-7 cells = target: B1; experiment: immunoprecipitation with 2G4 mAb, COS-7 cells
[1] = target: GFP-p62 with deletion of a region containing the LIR domain (256-370) (Homo sapiens, UniProt P42212 1-238 = GFP); experiment: immunoprecipitation with 2G4 mAb, COS-7 cells

Row | Binder | binding result (Vangl2 in COS-7 cells) | binding result [1]
1 | EGFP-tagged p62 (1-122), PB1 domain alone (other, not shown: EGFP tag) MASLTVKAYLLGKEDAAREIRRFSFCCSPEPEAEAEAAAGPGPCERLLSRVAALFPALRPGGFQAHYRDEDGDLVAFSSDEELTMAMSYVKDDIFRIYIKEKKECRRDHRPPCAQEAPRNMV | no binding | 
2 | B1 |  | no binding
